Laboratory results published in FireProtDB (doi:10.1021/bi992119u).

B1: Steroid Delta-isomerase, P07445 (parent)
chain: MNLPTAQEVQGLMARYIELVDVGDIEAIVQMYADDATVEDPFGQPPIHGREQIAAFYRQGLGGGKVRACLTGPVRASHNGCGAMPFRVEMVWNGQPCALDVIDVMRFDEHGRIQTMQAYWSEVNLSVREPQ

Variants of: B1
Details: Pseudomonas putida; pH 7; 25 °C; Urea; CD; Sodium phosphate 25 mM; reversible: yes; structure 1OH0; whole UniProt chain shown

Variant | denaturant m value [kcal/mol/M] | denaturant midpoint (higher = more stable) [M] | unfolding free energy [kJ/mol]
Y57F V101L | 2.31 | 4.25 | 68.6
Y32F | 3.23 | 5.49 | 102
Y32F Y57F | 3.05 | 5.81 | 102
Y32F V101L | 2.52 | 4.45 | 74.5
V101L | 3.32 | 4.19 | 85.8
Y16F | 3.1 | 4.3 | 83.3
Y57F | 2.98 | 4.77 | 87
